This note sets out measurements from patent publication EP4682162A1 (Neowise Biotechnology Co., Ltd., dated 2026).

For assay [1], the target named is T1, labeled peptide-MHC (HLA-A*02:01) tetramer (…-HLA-A*02:01 tetramer) (human).
T1 construct: Labeled tetramer used for flow cytometry staining; also called pMHC; pMHC tetramer
Briefly: pMHC tetramer staining of edited CD8+ T cells, flow cytometry.

Assay [2] concerns the target T1, labeled peptide-MHC (HLA-A*02:01) …. Briefly: tetramer staining of sorted T cell clones, flow cytometry.

B1: nwTCR-2006 (TCR, V domains shown)
V domain 1: AQSVTQLDSHVSVSEGTPVLLRCNYSSSYSPSLFWYVQHPNKGLQLLLKYTSAATLVKGINGFEAEFKKSETSFHLTKPSAHMSDAAEYFCVVSITGFQKLVFGTGTRLLVSP
V domain 2: GAVVSQHPSRVICKSGTSVKIECRSLDFQATTMFWYRQFPKQSLMLMATSNEGSKATYEQGVEKDKFLINHASLTLSTLTVTSAHPEDSSFYICSATEDNEKLFFGSGTQLSVLE
notes: TCR on T cells
On to B1, for which the binding result in assay [1] was “binds”.

B2: nwTCR-3273 (TCR, V domains shown)
V domain 1: SQELEQSPQSLIVQEGKNLTINCTSSKTLYGLYWYKQKYGEGLIFLMMLQKGGEEKSHEKITAKLDEKKQQSSLHITASQPSHAGIYLCGAVPINDYKLSFGAGTTVTVRA
V domain 2: EAQVTQNPRYLITVTGKKLTVTCSQNMNHEYMSWYRQDPGLGLRQIYYSMNVEVTDKGDVPEGYKVSRKEKRNFPLILESPSPNQTSLYFCASSIDSGSSYNEQFFGPGTRLTVLE
notes: TCR on T cells
On to B2, for which the binding result in assay [2] was “binds”.

B3: nwTCR-3271 (TCR, V domains shown)
V domain 1: DQQVKQNSPSLSVQEGRISILNCDYTNSMFDYFLWYKKYPAEGPTFLISISSIKDKNEDGRFTVFLNKSAKHLSLHIVPSQPGDSAVYFCAAKPDKLIFGTGTRLQVFP
V domain 2: SAVISQKPSRDICQRGTSLTIQCQVDSQVTMMFWYRQQPGQSLTLIATANQGSEATYESGFVIDKFPISRPNLTFSTLTVSNMSPEDSSIYLCSVWGAGLAIYNEQFFGPGTRLTVLE
notes: TCR on T cells
For the molecule B3, the binding result in assay [2] is on record as “binds”.

B4: nwTCR-2159 (TCR, V domains shown)
V domain 1: QQPVQSPQAVILREGEDAVINCSSSKALYSVHWYRQKHGEAPVFLMILLKGGEQKGHDKISASFNEKKQQSSLYLTASQLSYSGTYFCGTESGRGSTLGRLYFGRGTQLTVWP
V domain 2: DSGVTQTPKHLITATGQRVTLRCSPRSGDLSVYWYQQSLDQGLQFLIQYYNGEERAKGNILERFSAQQFPDLHSELNLSSLELGDSALYFCASSPWTSGSYEQYFGPGTRLTVTE
notes: TCR on T cells
Turning to B4, the binding result in assay [1] is “binds”.

B5: nwTCR-3274 (TCR, V domains shown)
V domain 1: QKEVEQNSGPLSVPEGAIASLNCTYSDRGSQSFFWYRQYSGKSPELIMSIYSNGDKEDGRFTAQLNKASQYVSLLIRDSQPSDSATYLCAVVSGGYNKLIFGAGTRLAVHP
V domain 2: EPEVTQTPSHQVTQMGQEVILRCVPISNHLYFYWYRQILGQKVEFLVSFYNNEISEKSEIFDDQFSVERPDGSNFTLKIRSTKLEDSAMYFCASSEGWGGTEAFFGQGTRLTVVE
notes: TCR on T cells
B5: the binding result in assay [2] was “binds”.

B6: nwTCR-2169 (TCR, V domains shown)
V domain 1: SQQGEEDPQALSIQEGENATMNCSYKTSINNLQWYRQNSGRGLVHLILIRSNEREKHSGRLRVTLDTSKKSSSLLITASRAADTASYFCATLTLNDYKLSFGAGTTVTVRA
V domain 2: EAQVTQNPRYLITVTGKKLTVTCSQNMNHEYMSWYRQDPGLGLRQIYYSMNVEVTDKGDVPEGYKVSRKEKRNFPLILESPSPNQTSLYFCATQWASGSTDTQYFGPGTRLTVLE
notes: TCR on T cells
With B6, the binding result in assay [1] was “binds”.

B7: nwTCR-3272 (TCR, V domains shown)
V domain 1: QKEVEQNSGPLSVPEGAIASLNCTYSDRGSQSFFWYRQYSGKSPELIMSIYSNGDKEDGRFTAQLNKASQYVSLLIRDSQPSDSATYLCAVPSGNMLTFGGGTRLMVKP
V domain 2: DVKVTQSSRYLVKRTGEKVFLECVQDMDHENMFWYRQDPGLGLRLIYFSYDVKMKEKGDIPEGYSVSREKKERFSLILESASTNQTSMYLCASSSATSGSGEQYFGPGTRLTVTE
notes: TCR on T cells
Consider B7, for which the binding result in assay [2] is on record as “binds”.

B8: nwTCR-1954 (TCR, V domains shown)
V domain 1: QKEVEQNSGPLSVPEGAIASLNCTYSDRGSQSFFWYRQYSGKSPELIMSIYSNGDKEDGRFTAQLNKASQYVSLLIRDSQPSDSATYLCAVLRSNDYKLSFGAGTTVTVRA
V domain 2: EAQVTQNPRYLITVTGKKLTVTCSQNMNHEYMSWYRQDPGLGLRQIYYSMNVEVTDKGDVPEGYKVSRKEKRNFPLILESPSPNQTSLYFCASSPGTSGNEQFFGPGTRLTVLE
notes: TCR on T cells
Turning to B8, the binding result in assay [2] was “binds”.

B9: nwTCR-3173 (TCR, V domains shown)
V domain 1: SQQGEEDPQALSIQEGENATMNCSYKTSINNLQWYRQNSGRGLVHLILIRSNEREKHSGRLRVTLDTSKKSSSLLITASRAADTASYFCATYANDYKLSFGAGTTVTVRA
V domain 2: EAQVTQNPRYLITVTGKKLTVTCSQNMNHEYMSWYRQDPGLGLRQIYYSMNVEVTDKGDVPEGYKVSRKEKRNFPLILESPSPNQTSLYFCASSAGTGGFVGYTFGSGTRLTVVE
notes: TCR on T cells
As to B9, the binding result in assay [2] is given as “binds”.

B10: nwTCR-2157 (TCR, V domains shown)
V domain 1: QKEVEQNSGPLSVPEGAIASLNCTYSDRGSQSFFWYRQYSGKSPELIMFIYSNGDKEDGRFTAQLNKASQYVSLLIRDSQPSDSATYLCAVPGGTSYGKLTFGQGTILTVHP
V domain 2: DTAVSQTPKYLVTQMGNDKSIKCEQNLGHDTMYWYKQDSKKFLKIMFSYNNKELIINETVPNRFSPKSPDKAHLNLHINSLELGDSAVYFCASSQGISGNTIYFGEGSWLTVVE
notes: TCR on T cells
Regarding B10, in assay [1], the binding result is on record as “binds”.
